This note sets out measurements from patent US20180142000A1.

Where a chain is given by its changes, count along the chain named. “And” between values parts separate entries of the source, which are not always exact repeats. Identical values can stand only once. Like-named read-outs stand apart in the source and are kept apart here.

Assay [1] has as its target C. jejuni (strain 81-176) flagella (Campylobacter jejuni strain 81-176). In words: SPR (Biacore 3000), single-cycle kinetics, […].
The target is the same in assay [2]. The assay can be described thus: ELISA on coated flagella, approximate affinity. In general terms: ELISA stands for enzyme-linked immunosorbent assay.
The target is the same in assay [3].

B1: FlagV1M (VHH)
VHH: QVKLEESGGGLVQAGGSRRLSCATSGLTFRNFHMAWFRQVAGKEREVVAAISWSRDRQYYPDPVKGRFTITRDNAKNTVYLQMNSLKPEDTAVYYCAARTASASGDWYKGSYQYWGQGTQVTVSS
In the case of B1, in assay [1], the Kd stood at 23.9 nM, the koff is 0.00563 s⁻¹ and the kon amounted to 236000 M⁻¹ s⁻¹. Moreover, the Kd in assay [2] is 20 nM and 30 nM.

B2: FlagV1F23M (VHH)
VHH: B1 VHH with K3Q, E5V
In assay [1], B2 came in with a Kd of 18.6 nM, a koff of 0.00426 s⁻¹ and a kon of 229000 M⁻¹ s⁻¹.

B3: FlagV1MDSB (VHH)
VHH: B1 VHH with A49C, I70C
Take B3: in assay [1], the Kd was found to be 18.2 nM, the dissociation rate constant (koff) amounted to 0.0028 s⁻¹ and the kon turned out to be 153000 M⁻¹ s⁻¹.

B4: FlagV1F23MDSB (VHH)
VHH: B1 VHH with K3Q, E5V, A49C, I70C
Turning to B4, in assay [1], the dissociation constant Kd was 17.3 nM, the off-rate (koff) is 0.00286 s⁻¹ and the kon was 165000 M⁻¹ s⁻¹.

B5: FlagV6M (VHH)
VHH: QVKLEESGGGLVQAGGSLRVSCTASVSTFSINALGWYRQAPGKARELVAAIGSDGTVYYTDSVKGRFTISRDNAKNTVSLQMSSLKPEDTAVYYCNAAGKRIGSDGSIWFAVASFGSWGQGTQVTVSS
As for B5, in assay [3], the Kd worked out at 25 nM, the koff was 0.03 s⁻¹ and the on-rate (kon) is 1e+06 M⁻¹ s⁻¹.

The term Kd denotes the equilibrium constant for the complex coming apart. Higher therefore signals lower affinity. By koff is commonly meant the first-order rate constant of dissociation. Read a low koff as slow dissociation. One may read the kon as the rate constant with which the complex forms. Read a high kon as fast association.
